Reference: patent US20060239990A1, “Protein Arginine N-Methyltransferase 2 (PRMT-2)” (priority 2003, published 2006)

T1: RB (Homo sapiens, UniProt P06400)
T1 construct: coding region of RB cDNA was subcloned into pGEX-6P (Amersham/Pharmacia) for generation of GST-RB; made in house
T1 sequence (P06400 1-928): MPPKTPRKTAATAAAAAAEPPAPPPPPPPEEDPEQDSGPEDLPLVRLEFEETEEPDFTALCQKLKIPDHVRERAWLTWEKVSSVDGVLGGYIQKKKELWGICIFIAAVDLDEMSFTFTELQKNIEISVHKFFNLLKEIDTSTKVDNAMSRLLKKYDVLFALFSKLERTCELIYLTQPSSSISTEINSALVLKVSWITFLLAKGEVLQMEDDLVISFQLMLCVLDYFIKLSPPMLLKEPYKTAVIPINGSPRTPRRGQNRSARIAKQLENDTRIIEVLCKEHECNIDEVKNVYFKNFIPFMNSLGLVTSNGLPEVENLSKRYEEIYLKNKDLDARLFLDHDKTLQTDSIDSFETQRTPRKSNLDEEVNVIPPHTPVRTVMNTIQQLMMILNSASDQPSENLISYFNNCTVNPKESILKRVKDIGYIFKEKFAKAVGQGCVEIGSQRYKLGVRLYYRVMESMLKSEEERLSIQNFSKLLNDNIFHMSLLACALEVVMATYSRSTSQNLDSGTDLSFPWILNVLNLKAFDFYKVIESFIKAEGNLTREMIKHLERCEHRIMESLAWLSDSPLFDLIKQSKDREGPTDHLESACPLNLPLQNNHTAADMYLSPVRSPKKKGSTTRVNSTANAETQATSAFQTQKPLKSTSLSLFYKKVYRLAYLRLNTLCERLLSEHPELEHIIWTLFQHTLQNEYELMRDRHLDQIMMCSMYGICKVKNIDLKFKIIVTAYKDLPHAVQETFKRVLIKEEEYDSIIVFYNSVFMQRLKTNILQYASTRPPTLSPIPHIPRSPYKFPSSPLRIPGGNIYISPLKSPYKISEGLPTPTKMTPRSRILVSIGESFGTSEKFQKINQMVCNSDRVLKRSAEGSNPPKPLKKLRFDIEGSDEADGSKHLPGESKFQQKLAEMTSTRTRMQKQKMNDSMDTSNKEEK


Columns and labels:
RB = target: T1, RB; experiment: In vitro binding assay with GST-RB; settings: S35-labeled in vitro translated protein
Experimental: The crude cell lysate of the GST-fusion proteins was prepared and purified according to the manufacture's protocol (Amersham/Pharmacia). [^35S]-methionine-labeled protein was produced by in vitro transcription/translation using the TNT T7-coupled reticulocyte lysate system (Promega). [^35S]-methionine-labeled protein and GST-fusion protein bound to glutathione sepharose 4B beads were incubated in 500 μl of HNE buffer (50 mM Hepes, pH 7.8, 150 mM NaCl, 1 mM EDTA, 1 mM DTT, 1% NP40, and 1× protease inhibitor mix (Complete: Roche)) at 4° C. for 1 hour. Beads were washed four times with HNE buffer, and then analyzed on an SDS-PAGE gradient gel (4-15%). For the detection of endogenous PRMT-2 interaction with RB, MEFs were lysed with WCL buffer (50 mM Hepes, pH 7.8, 400 mM NaCl, 2 mM EDTA, 1 mM DTT, 0.2% NP40, 10% Glycerol, 20 mM α-glycerophosphate, 5 mM NaF, 0.1 mM NaVO4, and 1× protease inhibitor mix). Then, 1 mg of whole cell extracts were incubated with HNE buffer without DTT and 3 μg of antibodies as indicated. The immune complexes were isolated using protein G beads, and washed four times with HNE buffer. The precipitated protein was boiled with SDS-loading buffer and resolved on SDS-PAGE. For immunoprecipitation of HA-tagged protein, transfected cells were lysed with RIPA buffer (phosphate buffer saline containing 1% NP40, 0.5% sodium deoxycholate, 0.1% SDS, and 1× Complete), and 100 μg of whole cell lysates were immunoprecipitated with anti-HA antibodies and washed in RIPA buffer. Western blot analysis was performed as described in Tanner et al. (1998). Circ Res, 82, 396-403.
To test whether PRMT family members interact with RB, S^35-labeled in vitro translated PRMT1, PRMT2, PRMT3, and PRMT4 (CARM1) were incubated with GST-RB fusion proteins or control GST, and co-precipitated labeled proteins were resolved by SDS-PAGE. […] An equal amount of GST-RB and GST were loaded in each lane, verified by Coomassie staining (FIG. 8B).

E2F1 = experiment: E2F reporter assay (GAL4-E2F1 activator, luciferase); format: cell-based; settings: U2OS cells, in the presence of the E2F1 activator
Experimental: HeLa cells, U2OS cells, and Saos2 cells were seeded at a density of 5×10^4 per well in 24-well plates. Cells were transfected 24 hours later with the indicated plasmid and with 20 ng of pRL-TK (Promega) as an internal control to normalize transfection efficiency. The amount of CMV promoter in the transfection was kept constant using empty vector. Cells were harvested at 30 or 36 hour after transfection and luciferase activity was analyzed by Dual-Luciferase Reporter Assay System (Promega). Luciferase activity was measured as a ratio of Firefly to Renilla. To study endogenous E2F activity in MEFs, PRMT-2^+/+ or PRMT-2^−/− MEFs were seeded at a density of 3×10^5 per well in 6-well plates. Cells were transfected 24 hours later with 3 μg of E2F4B-Luc and 10 ng of pRL-TK plasmid. Cells were harvested at 36 hour after transfection and analyzed for luciferase activity as described above.

HIV-1 LTR = experiment: HIV-1 reporter transcription, transient co-transfection; format: cell-based, human; settings: 293T cells, co-transfection
Experimental: Cell culture, transfection, and reporter gene assays. The E1A-transformed, human kidney cell line, 293, and NIH-3T3 cells were maintained in Dulbecco's Modified Eagle Medium (DMEM) supplemented with 10% fetal calf serum and penicillin-streptomycin at 37° C. in 5% carbon dioxide in tissue culture grade Petri dishes. PRMT-2−/− mouse embryo fibroblasts (MEFs) and wild type MEFs were prepared from day 13.5 embryos and maintained in DMEM supplemented with 10% fetal calf serum. MEFs at passage 4 were used in this experiment. Lipofectamine Plus™ reagent (Boehringer Mannheim) was used to transfect both 293 and NIH-3T3 cells according to directions from the manufacturer. […] TNF-α stimulation of cells was done using recombinant TNF-α (200 U/ml) for 12 hours. Transfected cells were harvested at 36 hours, and CAT activity was assayed on 10 to 100 μg of protein from whole cell extracts. CAT assays were performed essentially as described in Leung, K. & Nabel, G. J. Nature 333, 776-778 (1988). To analyze the κB-reporter activity in MEFs, cells were transfected with the reporter (2×kB-Luc) and PRL-TK vector (Promega) using FuGENE6 transfection reagent (Roche). Luciferase activity was analyzed by Dual-Luciferase Reporter Assay System (Promega).
To determine whether PRMT-1, 2 or 3 could affect NF-κB function, their potential to regulate effects on transcription of the human immunodeficiency virus type 1 (HIV-1) was examined. Transient co-transfections were performed using PRMT1, PRMT2 and PRMT3 expression plasmids with an HIV-1 reporter plasmid in the human renal epithelial cell line, 293T.
To determine its dependence on NF-κB, human immunodeficiency virus type 1 (HIV-1) reporter plasmids with wild-type (WT) or mutant (ΔκB) sites were co-transfected transiently with control or PRMT2 expression plasmids in the different cell lines. […] The KB effect was dose-dependent and was also observed with other inducers of NF-κB, including phorbol […] (PMA) (FIG. 2B, right panel).

Row | Molecule | binding to RB (RB) | E2F1 activity (E2F1) | effect on transcription of the HIV-1 reporter plasmid (HIV-1 LTR)
1 | PRMT2(1-95&219-433): internal deletion of amino acid 96-218, deleting the AdoMet binding domain (protein) MATSGDCPRSESQGEEPAECSEAGLLQEGVQPEEFVAIADYAATDETQLSFLRGEKILILRQTTADWWWGERAGCCGYIPANHVGKHVDEYDPEDFEFMIESILYARDAWLKEDGVIWPTMAALHLVPCSADKDYRSKVLFWDNAYEFNLSALKSLAVKEFFSKPKYNHILKPEDCLSEPCTILQLDMRTVQISDLETLRGELRFDIRKAGTLHGFTAWFSVHFQSLQEGQPPQVLSTGPFHPTTHWKQTLFMMDDPVPVHTGDVVTGSVVLQRNPVWRRHMSVALSWAVTSRQDPTSQKVGEKVFPIWR | did not bind GST-RB | failed to repress E2F1 activity | 
2 | PRMT4: protein methyltransferase CARM1 (PRMT4) (protein) AAAAAAVGPGAGGAGSAVPGGAGPCATVSVFPGARLLTIGDANGEIQRHAEQQALRLEVRAGPDSAGIALYSHEDVCVFKCSVSRETECSRVGKQSFIITLGCNSVLIQFATPNDFCSFYNILKTCRGHTLERSVFSERTEESSAVQYFQFYGYLSQQQNMMQDYVRTGTYQRAILQNHTDFKDKIVLDVGCGSGILSFFAAQAGARKIYAVEASTMAQHAEVLVKSNNLTDRIVVIPGKVEEVSLPEQVDIIISEPMGYMLFNERMLESYLHAKKYLKPSGNMFPTIGDVHLAPFTDEQLYMEQFTKANFWYQPSFHGVDLSALRGAAVDEYFRQPVVDTFDIRILMAKSVKYTVNFLEAKEGDLHRIEIPFKFHMLHSGLVHGLAFWFDVAFIGSIMTVWLSTAPTEPLTHWYQVRCLFQSPLFAKAGDTLSGTCLLIANKRQSYDISIVAQVDQTGSKSSNLLDLKNPFFRYTGTTPSPPPGSHYTSPSENMWNTGSTYNLSSGMAVAGMPTAYDLSSVIASGSSVGHNNLIPLANTGIVNHTHSRMGSIMSTGIVQGSSGAQGSGGGSTSAHYAVNSQFTMGGPAISMASPMSIPTNTMHYGS | do not bind RB |  | failed to inhibit NF-κB transcription specifically
